According to CN1420129A (ZHONGXIN GUOJIAN PHARMACEUTICA, dated 2003):
Read-outs that look alike come from different tables or passages of the source. Each block holds one molecule with its values, some of them ahead of it.

Tests used:
Test in all cases: cell-based or functional assay
[1] = biological target: CD20 (on CD20+ B lymphocytes / human B lymphoma cell line DHL-4) (human) (UniProt P11836)
[2] = biological target: CD20 (on CD20+ B lymphocytes / human B lymphoma cell line DHL-4) (human) (UniProt P11836); remark: listed apart in the source
[3] = biological target: T1, CD20 (on CD20+ B lymphocytes / human B lymphoma cell line DHL-4) (human, UniProt P11836 1-297)
T1 sequence (looked up): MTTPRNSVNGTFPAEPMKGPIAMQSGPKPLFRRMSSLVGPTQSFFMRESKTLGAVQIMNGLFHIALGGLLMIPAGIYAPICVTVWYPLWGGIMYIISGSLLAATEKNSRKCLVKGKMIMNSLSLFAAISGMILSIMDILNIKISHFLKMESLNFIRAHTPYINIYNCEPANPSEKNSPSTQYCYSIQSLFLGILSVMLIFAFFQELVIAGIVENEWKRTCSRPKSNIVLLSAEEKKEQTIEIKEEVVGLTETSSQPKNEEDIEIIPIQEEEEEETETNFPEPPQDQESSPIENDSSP

Molecule: Rituximab (antibody)
- 存活细胞% (DHL-4 CD20+ cells, cell count and MTT, day 5-7) at 1 μg/ml (% surviving cells) [1]: 50.3
- 存活细胞% (DHL-4 CD20+ cells, cell count and MTT, day 5-7) at 10 μg/ml (% surviving cells) [1]: 12.6
- 存活细胞% (DHL-4 CD20+ cells, cell count and MTT, day 5-7) at 100 μg/ml (% surviving cells) [1]: 29.4
- 存活细胞% (DHL-4 CD20+ cells, cell count and MTT, day 5-7) at 1 μg/ml (% surviving cells) [2]: 66.7
- 存活细胞% (DHL-4 CD20+ cells, cell count and MTT, day 5-7) at 10 μg/ml (% surviving cells) [2]: 32.1
- 存活细胞% (DHL-4 CD20+ cells, cell count and MTT, day 5-7) at 100 μg/ml (% surviving cells) [2]: 19.4

- 存活细胞% (DHL-4 CD20+ cells, cell count and MTT, day 5-7) at 1 μg/ml [3]: 99.6 % surviving cells
- 存活细胞% (DHL-4 CD20+ cells, cell count and MTT, day 5-7) at 10 μg/ml [3]: 46.5 % surviving cells
- 存活细胞% (DHL-4 CD20+ cells, cell count and MTT, day 5-7) at 100 μg/ml [3]: 56.7 % surviving cells
B1: 单克隆抗体7D3 (antibody, V domains shown)
VH: QAQLQQSGAELVRPGASVKMSCKASGYTFTRYNMHWVKQTPRQGLEWIGYIYPGNGDTNYNQKFKGKATLTVDKSSSTAYMQLSSLTSEDSAVYFCARRTYYSNSYWYFDVWGTGTTVTVSS
VL: QIVLTQSPAILSASPGEKVTMTCRASSSVSYMNWYQQKPGSSPKPWIYAPSNLASGVPARFSGSGSGTSYSLTISRVEAEDAATYYCQQWSNNPPTFGAGTKLELKR

- 存活细胞% (DHL-4 CD20+ cells, cell count and MTT, day 5-7) at 1 μg/ml [3]: 110 % surviving cells
- 存活细胞% (DHL-4 CD20+ cells, cell count and MTT, day 5-7) at 10 μg/ml [3]: 27.3 % surviving cells
- 存活细胞% (DHL-4 CD20+ cells, cell count and MTT, day 5-7) at 100 μg/ml [3]: 39.4 % surviving cells
B2: 嵌合单抗C7D3 (antibody, human IgG1, V domains shown)
VH: B1 VH
VL: B1 VL
